Laboratory results taken from US7427404.

Molecular target: monoclonal anti-S1 antibody 1B7
Test: competition RIA: 1B7 coated on plate, 125I-PT displaced by unlabelled toxin

| Substance | Ka [M⁻¹] |
| --- | --- |
| PT-13L/129G (from UniProt P04978 28-226; P04979 29-227; P0A3R5 43-152; P04981 35-133) | 1.3e+08 |
| PT-26I/129G (from UniProt P04978 28-226; P04979 29-227; P0A3R5 43-152; P04981 35-133) | 5.5e+07 |
| PT-129G (from UniProt P04978 28-226; P04979 29-227; P0A3R5 43-152; P04981 35-133) | 2.1e+08 |
